# Experimental data as given in patent publication US20050208021.
# Tests used:
# [1] = test system: T1, PhiC31 integrase mutant 1C1 (Bacteriophage Phi-C31); test: cell_activity; conditions: attB donor integration into 293 genome
# T1 sequence: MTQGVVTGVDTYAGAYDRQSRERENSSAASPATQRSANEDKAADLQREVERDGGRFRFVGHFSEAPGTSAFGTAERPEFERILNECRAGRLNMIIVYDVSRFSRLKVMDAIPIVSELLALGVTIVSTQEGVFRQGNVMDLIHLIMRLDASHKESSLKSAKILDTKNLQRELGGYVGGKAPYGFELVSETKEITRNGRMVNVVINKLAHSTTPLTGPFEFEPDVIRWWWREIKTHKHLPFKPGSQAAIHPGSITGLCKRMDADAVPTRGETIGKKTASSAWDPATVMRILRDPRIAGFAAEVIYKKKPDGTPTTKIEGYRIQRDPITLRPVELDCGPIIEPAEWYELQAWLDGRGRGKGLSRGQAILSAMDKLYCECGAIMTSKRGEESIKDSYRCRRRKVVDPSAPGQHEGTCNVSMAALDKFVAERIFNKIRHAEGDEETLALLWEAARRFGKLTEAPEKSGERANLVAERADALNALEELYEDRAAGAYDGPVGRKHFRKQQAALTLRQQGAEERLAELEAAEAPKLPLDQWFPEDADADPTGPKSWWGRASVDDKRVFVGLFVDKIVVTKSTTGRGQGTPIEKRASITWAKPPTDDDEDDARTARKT
# [2] = test system: T2, PhiC31 integrase wild type (Bacteriophage Phi-C31); test: cell_activity
# T2 sequence: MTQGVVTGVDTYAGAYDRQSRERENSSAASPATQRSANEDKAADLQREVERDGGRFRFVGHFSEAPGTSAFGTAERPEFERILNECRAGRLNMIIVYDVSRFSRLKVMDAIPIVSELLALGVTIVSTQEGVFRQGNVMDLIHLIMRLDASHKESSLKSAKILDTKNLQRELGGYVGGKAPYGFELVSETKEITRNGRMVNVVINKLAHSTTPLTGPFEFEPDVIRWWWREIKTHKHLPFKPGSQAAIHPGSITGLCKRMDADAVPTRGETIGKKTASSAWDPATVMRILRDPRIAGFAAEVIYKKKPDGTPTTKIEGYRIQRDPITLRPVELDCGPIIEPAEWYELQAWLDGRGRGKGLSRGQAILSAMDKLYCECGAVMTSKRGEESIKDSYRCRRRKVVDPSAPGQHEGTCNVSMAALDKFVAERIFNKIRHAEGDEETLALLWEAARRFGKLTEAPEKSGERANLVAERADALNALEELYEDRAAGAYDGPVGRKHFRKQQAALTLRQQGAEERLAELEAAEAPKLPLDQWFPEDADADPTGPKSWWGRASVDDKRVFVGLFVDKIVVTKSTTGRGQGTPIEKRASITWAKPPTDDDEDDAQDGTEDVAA
substance,measurement,setting,value
CGATGTAGGTCACGGTCTCGAAGCCGCGGTGCGGGTGCCAGGGCGTGCCCTTGGGCTCCCCGGGCGCGTACTCCACCTCACCCATCTGGTCCATCATGATGAACGGGTCGAGGTGGCGGTAGTTGATCCCGGCGAACGCGCGGCGCACCGGGAAGCCCTCGCCCTCGAAACCGCTGGGCGCGGTGGTCACGGTGAGCACGGGACGTGCGACGGCGTCGGCGGGTGCGGATACGCGGGGCAGCGTCAGCGGGTTCTCGACGGTCACGGCGGGCATGTCGA (double strand) [PhiC31 attB full length],activity (fold over background colonies),[1],> 10
PhiC31 attB/attP in pBCPB+,activity (% white colonies),"[2]; Drosophila S2 cells, +/-11.7, background 1.7",47.8
mouse pseudo attP mpsL1,activity (% haploid genomes integrated),"[2]; mouse liver, partner attB, qPCR, +/-0.89",1.8
